Assay results: article PMC11566906, “Transcription factor PbrERF114 is involved in the regulation of ethylene synthesis during pear fruit ripening”

How the values were obtained:
PbrERF114 [1] = biological target: T1, PbrERF114 (pear, cultivar Cuiguan?, UniProt A0A5H2MWQ4 1-250); test: EMSA; signal decreased with 10x, 50x, 200x cold probe; BLI: 137 mM NaCl, 4.3 mM Na2HPO4, 2.7 mM KCl, 1.4 mM KH2PO4, 0.02% Tween-20, pH 7.2 (PBS), streptavidin sensors, temperature not given; EMSA: LightShift Chemiluminescent EMSA kit, buffer not given; details: protein: recombinant; tags: His; pCold-TF vector (trigger factor fusion implied); label: biotin
PbrERF114 [2] = biological target: T1, PbrERF114; test: BLI; saturated at 8382 nM; sentence names PbrERF24-His, but context and legend are PbrERF114; BLI: 137 mM NaCl, 4.3 mM Na2HPO4, 2.7 mM KCl, 1.4 mM KH2PO4, 0.02% Tween-20, pH 7.2 (PBS), streptavidin sensors, temperature not given; EMSA: LightShift Chemiluminescent EMSA kit, buffer not given; details: protein: recombinant; tags: His; pCold-TF vector (trigger factor fusion implied); label: biotin

T1 sequence (A0A5H2MWQ4 entry or part of it): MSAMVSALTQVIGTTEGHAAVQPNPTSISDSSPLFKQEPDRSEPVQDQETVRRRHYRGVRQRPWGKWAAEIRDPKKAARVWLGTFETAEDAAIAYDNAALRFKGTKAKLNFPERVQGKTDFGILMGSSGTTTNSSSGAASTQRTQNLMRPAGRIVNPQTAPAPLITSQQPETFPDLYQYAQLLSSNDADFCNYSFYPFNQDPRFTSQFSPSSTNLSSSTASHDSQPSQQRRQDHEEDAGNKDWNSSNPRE

Binder | binding result (PbrERF114 [1]) | Kd (PbrERF114 [2])
PbrACS3 promoter probe (PbrERF114 EMSA) (dsDNA) DNA 1: TTACCATCTTAGGTGGCAGATGAGTTGGAC DNA 2: GTCCAACTCATCTGCCACCTAAGATGGTAA | binds | 
PbrERF24 promoter probe (dsDNA) DNA 1: CCAGTTTACAATGGTGGCCAAGATTGTAAT DNA 2: ATTACAATCTTGGCCACCATTGTAAACTGG |  | < 1000 nM
